From patent US20160237160A1 (Bayer, published 2016) come the findings set out here.

For orientation: koff means a measure of how fast the partners let go of each other. A high value points to a short-lived complex. For orientation: kon means a measure of how fast the partners come together.

Assay [1] addresses T1, TWEAKR (TNFRSF12A, FN14), human, on tumor cell lines (human, UniProt Q9NP84 28-129).
T1 construct: endogenous receptor on human cancer cell lines; also called TWEAK receptor; CD266
The assay can be described thus: FACS, WiDr cells, 10 ug/ml.
Procedure: (§1) To determine the binding characteristics of the anti-TWEAKR antibodies on mouse and human cancer cell lines, binding was tested by flow cytometry to a panel of cell lines. […] Cells were suspended at approximately 10⁵ cells/well in FACS buffer (PBS without Ca/Mg, containing 3% FCS, Biochrom). Cells were centrifuged (250 g, 5 min, 4° C.) and supernatant discarded. Cells were resuspended in dilutions of the antibodies of interest (10 μg/ml in 80 μl if not indicated otherwise) in FACS buffer, and incubated on ice for 1 h. […] After incubation for 1 h on ice cells were again washed with cold FACS buffer, resuspended in 1000 FACS buffer and analyzed by flow cytometry using a FACS-Array (BD Biosciences). Results are calculated as Geo Mean of fluorescence detected by the antibody of interest subtracted by background fluorescence as measured by detection with the secondary antibody alone. Values are scored according to the following system: Geo Mean−Geo Mean of secondary antibody alone >10: +, >100: ++, >1000: +++, 10000: ++++, close to category border in ( ).

The target in assay [2] is T2, TPP-2203 (TWEAKR-ECD-34-68-hIgGFc-His) (human).
T2 construct: dimeric; also called TWEAKR(34-68)-Fc fusion protein; truncated ectodomain 34-68
The assay can be described thus: ELISA, TPP-2203 coated at 1 µg/ml, biotinylated IgG at 0.08 µg/ml (open bar) and 0.3 µg/ml (filled bar), Streptavidin-HRP, Amplex Red.
Procedure: (§2) Detection was done with Streptavidin-HRP and Amplex-Red substrate.
(§3) To analyze for binding, 1 μg/ml of the respective dimeric TWEAKR-Fc construct were coated and, 0.3 μg/ml and 0.08 μg/ml of biotinylated IgG were used as soluble binding partner. Detection was done with Streptavidin-HRP and Amplex-Red substrate.

Assay [3] deals with T1, TWEAKR (TNFRSF12A, FN14), human, on …. The assay can be described thus: cell-based or functional assay.
The target is the same in assay [4]. In words: cell-based or functional assay. This is another data set of the same source.
Assay [5] has the same target. In words: FACS, SKOV-3 cells, 10 ug/ml. In general terms: A flow cytometer gives signals particle by particle.
Procedure: as §1
The target is the same in assay [6]. In words: FACS, HT29 cells, 10 ug/ml.
Procedure: as §1
Assay [7] shares this target. The assay can be described thus: FACS, A375 cells, 10 ug/ml.
Procedure: as §1
Assay [8] addresses TPP-1987 (hTNFRSF12Aaa28-80-S40R-hIgG1-Fc) (human). The assay can be described thus: ELISA, TWEAKR-Fc coated 62 ng/ml, biotin-IgG titrated; + means IC50 1 to 150 pM. (In general: An ELISA detects its analyte on a solid surface through an enzyme-linked reagent.)
Procedure: (§4) To collect dose-response data, the different TWEAKR-Fc muteins were coated with a low concentration (62 ng/ml) in a 384-well Maxisorb ELISA plate and a serial 2fold dilution of biotinylated IgG starting with a concentration of 100 nM was used as soluble binding partner. Detection was done with Streptavidin-HRP and Amplex Red.
(§5) The dose-response data were fitted and IC50s determined.
Assay [9] concerns the target TPP-1986 (hTNFRSF12Aaa28-80-T33Q-hIgG1-Fc) (human). The assay is described as above.
Procedure: as §4, §5
Assay [10] has as its target TPP-1990 (hTNFRSF12Aaa28-80-L65Q-hIgG1-Fc) (human). The description is as above.
Procedure: as §4, §5
Assay [11] concerns the target TPP-1988 (hTNFRSF12Aaa28-80-M50A-hIgG1-Fc) (human). The assay is described as above.
Procedure: as §4, §5
Assay [12] concerns the target TPP-1989 (hTNFRSF12Aaa28-80-H60K-hIgG1-Fc) (human). The assay is described as above.
Procedure: as §4, §5
For assay [13], the target named is TPP-2683 (hTNFRSF12Aaa28-80-R56P-hIgG1-Fc) (human). The description is as above.
Procedure: as §4, §5
Assay [14] has as its target T3, TPP-1984 (hTNFRSF12Aaa28-68-CT-His) (human).
T3 construct: monomeric ectodomain with HIS6 tag; also called TWEAKR(28-68)-HIS; C-terminally truncated TWEAKR ectodomain
T3 chain: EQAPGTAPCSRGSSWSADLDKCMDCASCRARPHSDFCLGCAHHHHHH
In words: ELISA, TPP-1984 coated at 1 µg/ml, biotinylated IgG at 0.08 µg/ml (open bar) and 0.3 µg/ml (filled bar), Streptavidin-HRP, Amplex Red.
Procedure: as §2, §3

Assay [15] deals with T1, TWEAKR (TNFRSF12A, FN14), human, on …. The assay can be described thus: cell-based or functional assay. The source holds these as a separate data set.
The target is the same in assay [16]. In words: FACS, NCI-H322 cells, 10 ug/ml.
Procedure: as §1
Assay [17] deals with T4, TPP-2202 (TWEAKR-ECD-28-80-hIgGFc-His) (human).
T4 construct: dimeric; also called TWEAKR-Fc fusion protein; full ectodomain 28-80
In words: ELISA, TPP-2202 coated at 1 µg/ml, biotinylated IgG at 0.08 µg/ml (open bar) and 0.3 µg/ml (filled bar), Streptavidin-HRP, Amplex Red.
Procedure: as §2, §3

In assay [18] the target is T5, TPP-1777 (DOG-TNFRSF12Aaa28-80-hIgG1-Fc) (dog).
T5 construct: bivalent antigen; also called dog TWEAKR Fc
The assay can be described thus: SPR, TWEAKR-Fc immobilized, IgG injected, bivalent analyte model (avidity mode).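 Note: kd derived as the ratio of fitted dissociation to association rate constants, with sensorgrams corrected against a reference flow cell and a buffer blank before fitting.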
Procedure: (§6) Sensorgrams were generated after in-line reference cell correction followed by buffer sample subtraction. The dissociation equilibrium constant (KD) was calculated based on the ratio of association (kₒₙ₁) and dissociation rated (koff1) constants, obtained by fitting sensorgrams with a bivalent analyte model using Biavaluation Software (version 4.0).

The target of assay [19] is T6, TPP-1779 (RAT-TNFRSF12Aaa28-80-hIgG1-Fc) (rat).
T6 construct: bivalent antigen; also called rat TWEAKR Fc
Described as above.
Procedure: as §6

In assay [20] the target is T7, TPP-601 (MURINE-TNFRSF12Aaa28-80-hIgG1-Fc) (murine).
T7 construct: dimeric; also called murine TWEAKR Fc
The assay is described as above.
Procedure: as §6

Assay [21] addresses T8, TPP-1778 (PIG-TNFRSF12Aaa28-80-hIgG1-Fc) (pig).
T8 construct: bivalent antigen; also called pig TWEAKR Fc
Described as above.
Procedure: as §6

The target of assay [22] is T9, TPP-599 (HUMAN-TNFRSF12Aaa28-80-hIgG1-Fc) (human).
T9 construct: dimeric; also called human TWEAKR Fc; TWEAKR-Fc
The description is as above.
Procedure: as §6

Assay [23] has as its target T10, TPP-1846 (MAC-TNFRSF12Aaa28-80-hIgG1-Fc) (macaca fascicularis).
T10 construct: bivalent antigen; also called mac fasc TWEAKR Fc
The assay is described as above.
Procedure: as §6

The target in assay [24] is T1, TWEAKR (TNFRSF12A, FN14), human, on …. In words: FACS, 786-O cells, 10 ug/ml.
Procedure: as §1
Assay [25] has as its target T11, TPP-2305 (hTNFRSF12Aaa28-80) (Human, UniProt Q9NP84 28-80).
T11 construct: monomeric extracellular domain, bought; also called purified recombinant human TWEAKR protein; soluble monomeric TWEAKR
The assay can be described thus: SPR (Biacore T100), IgG captured, TPP-2305 injected, 1:1 model.

The target in assay [26] is T12, TPP-2614 (TweakR-ECD-34-68-hIgGFc-His-D47A) (human).
T12 construct: also called D47A TWEAKR mutein
In words: ELISA, IgG coated 1 ug/ml, TWEAKR variant 250 ng/ml, anti-HIS HRP (FIG. 6C).
Procedure: Antibodies were coated (1 μg/ml), TWEAKR variant was added at 250 ng/ml, detection via anti-HIS HRP. […] Antibodies were coated (1 μg/ml), TWEAKR variant was added 250 ng/ml, detection via anti-HIS HRP.

In assay [27] the target is T9, TPP-599 …. In words: ELISA, 2.5 nM biotinylated TWEAKR-Fc coated, soluble Fab, anti-c-Myc detection.
Assay [28] concerns the target T9, TPP-599 …. In words: ELISA, TWEAKR-Fc coated 62 ng/ml, biotin-IgG titrated; + means IC50 1 to 150 pM.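 Note: biotinylated IgG binding to immobilized TWEAKR-Fc muteins, detected with Streptavidin-HRP and Amplex Red, IC50 derived from fitted dose-response curves of twofold serial dilutions.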
Procedure: as §4, §5

B1: TPP-2084 (antibody, human IgG1, kappa, V domains shown)
VH: EVQLLESGGGLVQPGGSLRLSCAASGFTFSPYPMMWVRQAPGKGLEWVSYISPSGGSTHYADSVKGRFTISRDNSKNTLYLQMNSLRAEDTAVYYCARGGDTYFDYFDYWGQGTLVTVSS
VL: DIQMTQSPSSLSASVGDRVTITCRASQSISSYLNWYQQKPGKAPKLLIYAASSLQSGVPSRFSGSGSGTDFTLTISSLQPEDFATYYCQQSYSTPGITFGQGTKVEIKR
notes: Human IgG1
Turning to B1, the “GeoMean of Fluorescence minus GeoMean with the secondary antibody only” value in assay [1] worked out at 1350; in [5], 1660; in [6] it was 750; in assay [7] it was 199; in [16], 126; in assay [24], 16300. The binding result in assay [2], in assay [8], in [9], in assay [10], in assay [11] and in assay [12] was “binds” throughout. The binding result in assay [13], in assay [14] and in assay [17] was “binds” throughout. Further, in [3], the “IL-8 release from A375 cells at 100 ug/ml, % of the activation by 300 ng/ml TWEAK ligand” value worked out at 113%. For the same molecule, the “% Inhibition of proliferation, 786-O cells, 96h, 100 ug/ml” value in [4] was 68%. For the same molecule, the “% Inhibition of proliferation, A253 cells, 72h, 100 ug/ml” value in assay [4] was over 100%. The “% Inhibition of proliferation, HT-29 cells, 24h, 100 ug/ml” value in assay [4] came to 98%. For the same molecule, the “% Inhibition of proliferation, WiDr cells, 96h, 100 ug/ml” value in [4] came to 52%. Besides, in assay [15], the “Fold induction of Caspase 3/7, 786-O cells, 100 ug/ml” value was determined as 1.61 fold. The “Fold induction of Caspase 3/7, A253 cells, 100 ug/ml” value in [15] was found to be 1.6 fold. Moreover, the “Fold induction of Caspase 3/7, HT-29 cells, 100 ug/ml” value in [15] turned out to be 2.59 fold. Further, the “Fold induction of Caspase 3/7, NCI-H322 cells, 100 ug/ml” value in assay [15] was 1.58 fold. Moreover, the Kd in assay [18] stood at 17 nM; in assay [19], 21.1 nM; in assay [20], 4 nM; in assay [21], 34.2 nM; in [22], 16.2 nM; in assay [23], 23.8 nM. Further, in assay [25], the Kd was 27.6 nM. Also, in [25], the koff is 0.11 s⁻¹. The molecule also had a kon in assay [25] of 4.2e+06 M⁻¹ s⁻¹. The “% binding normalized by wt binding signal” value in [26] was under 5%.

B2: TPP-883 Fab variant S94T of CDR-L3 (Fab, V domains shown)
VH: EVQLLESGGGLVQPGGSLRLSCAASGFTFSPYPMMWVRQAPGKGLEWVSYISPSGGKTHYADSVKGRFTISRDNSKNTLYLQMNSLRAEDTAVYYCARGGDGYFDYFDYWGQGTLVTVSS
VL: DIQMTQSPATLSASVGDRVTITCRASQSISSYLNWYQQKPGKAPKLLIYAASSLQSGVPSRFSGSGSGTDFTLTISSLQPEDFATYYCQQSYTSPGITFGPGTKVEIK
On to B2, for which the binding result in assay [27] is “binds”.

B3: TPP-883 Fab variant A51Q of CDR-L2 (Fab, V domains shown)
VH: EVQLLESGGGLVQPGGSLRLSCAASGFTFSPYPMMWVRQAPGKGLEWVSYISPSGGKTHYADSVKGRFTISRDNSKNTLYLQMNSLRAEDTAVYYCARGGDGYFDYFDYWGQGTLVTVSS
VL: DIQMTQSPATLSASVGDRVTITCRASQSISSYLNWYQQKPGKAPKLLIYQASSLQSGVPSRFSGSGSGTDFTLTISSLQPEDFATYYCQQSYSSPGITFGPGTKVEIK
For the molecule B3, the binding result in assay [27] is “binds”.

B4: TPP-883 Fab variant G97F of CDR-L3 (Fab, V domains shown)
VH: EVQLLESGGGLVQPGGSLRLSCAASGFTFSPYPMMWVRQAPGKGLEWVSYISPSGGKTHYADSVKGRFTISRDNSKNTLYLQMNSLRAEDTAVYYCARGGDGYFDYFDYWGQGTLVTVSS
VL: DIQMTQSPATLSASVGDRVTITCRASQSISSYLNWYQQKPGKAPKLLIYAASSLQSGVPSRFSGSGSGTDFTLTISSLQPEDFATYYCQQSYSSPFITFGPGTKVEIK
Turning to B4, in assay [27], the binding result is “binds”.

B5: 136.1(TPP-2194) (antibody, mouse IgG2a, kappa, V domains shown)
VH: EVKLEESGGGLVQPGGSMKLSCVASGFTFNNYWMSWVRQSPEKGLEWLAEIRLKSDNYATHYAESVKGKFTISRDDSKSRLYLQMNNLRAENTGIYYCTGGFADYFDYWGQGTTLTVSS
VL: DIVLTQSPASLTVSLGQRATISCRASQSVSTSSYSYMQWYQQRPGQPPKLLIKYATNLDSGVPARFSGSGSGTDFTLNIHPVEEEDAATYYCQHSWEIPYTFGGGTKLEIKR
notes: Murine IgG2a; variable domains from WO2009/020933 with constant region added
For B5, the binding result in assay [2], in assay [8], in assay [9], in assay [10], in assay [11] and in [12] was “binds” each time. For the same molecule, the binding result in assay [28], in assay [14] and in assay [17] was “binds” in each case. Further, the “IL-8 release from A375 cells at 100 ug/ml, % of the activation by 300 ng/ml TWEAK ligand” value in assay [3] stood at 93%. The “Fold induction of Caspase 3/7, HT-29 cells, 100 ug/ml” value in assay [15] amounted to 1.81 fold. The molecule also displayed a Kd in [25] of 0.8 nM. Also, in assay [25], the koff came out at 0.0324 s⁻¹. In addition, in assay [25], the kon was 3.84e+07 M⁻¹ s⁻¹.
